Laboratory results published in article doi:10.1101/2020.04.03.022970v1.

Substrate: N[C@@H](Cc1c[nH]c2ccccc12)C(=O)O
Experiment: radiolabelled uptake in intact E. coli MQ614
Assay type: cell-based, Halalkalibacterium halodurans
Settings: 10-second uptake, 10 mM Tris/Mes pH 8.5, 150 mM NaCl, labelled compound

B1: MhsT (Halalkalibacterium halodurans C-125) (protein)
chain: SLKQQTGREQWASRLGFILAAMGSAVGLGNIWRFSYVTGENGGAAFLLVYLGFIALIGIPIVLAEFTIGRRAQSDAVGSFEKLAPGKPWKVAGLMGVAAGFLILSFYGVIAGWILFYLFNYITGQLWSAPAEGFGGFFEGFIANPTLPLFWQALFMIATIWIVAIGVKKGIERSNKILMPLLGVLLIALAIYSLTLGGAKEGLAFLFSPDWSALKDPGVYLAAISQAFFTLSLGMGALITYGSYVSKDSRLPGAAVSVAGLDTAFAIIAGIMIFPAVFALGLSPSGGPGLVFVVLPDIFDSIRLGPIVGIAFFILLGAAALSSAVSLLEVPVAYFMRKFDWSRKQAAITLGVIITLLGIPSSLSFGVLGEVTIIPGLNIFDSVDFIASSVFLPLGGMIIALFIGWGWKTSDALAESDLTDSVWGKLWILSLRFIAPIAILIVFLSAFQIFFN
- Km: 1.07 ± 0.19 µM
